# Source: patent US20040096852A1, “Mixed fibrils” (priority 2000, published 2004)
# Ends that are not written are not given here. * marks the point of attachment. Dansyl = CN(C)c1cccc2c(S(=O)(=O)*)cccc12
# T1: TTR10-19 (human)
# T1 construct: Unlabelled synthetic peptide, present as amyloid fibrils in the assays; also called TTR10-19 fibrils
# T1 peptide: CPLMVKVLDA
# T2: TTR105-115 (human)
# T2 construct: Unlabelled synthetic peptide, present as amyloid fibrils in the assays
# T2 peptide: YTIAALLSPYS
# B1: dansyl-TTR105-115 (peptide)
# peptide: Dansyl-YTIAALLSPYS
# notes: Synthetic peptide derived from human transthyretin
# B2: F5M-TTR10-19 (peptide)
# peptide: C(fluorescein‑5‑maleimide)PLMVKVLDA
# notes: Synthetic peptide derived from human transthyretin; also called fluorescein-5-maleimide labeled TTR10-19
# Columns and labels:
# [1] = pH 2.5
# Source text: Where the proteins forming the fibrils are unrelated the kinetics of fibril formation are likely to be different.
# [2] = Solubility of peptide under labeling conditions; type: physicochemical
# Protocol: TTR10-19 labeling with fluorescein. The N-terminal cysteine residue of TTR10-19 was the target for labeling by the thiol-reactive fluorophore fluorescein-5-maleimide (F5M; Molecular Probes, Eugene, Oreg.). TTR10-19 was resuspended at 1 mg/ml in H2O, and the cysteine residue reduced by the addition of a 10-fold molar excess of tris-(2-carboxyethyl) phosphine (TCEP; Molecular Probes, Eugene, Oreg.) and incubation for 1 h at room temperature. F5M in DMSO was added to the peptide solution to give a 10-fold molar excess of fluorophore over peptide in a final concentration of 10% DMSO. Under these conditions TTR10-19 was fully soluble. The mixture was incubated overnight at 4° C. to ensure maximum labeling. The labeling mixture was then applied to a disposable SepPak C-18 reverse-phase chromatography column (Waters, Milford, Mass.) and washed with H2O/CH3CN (90:10 v/v). TCEP and unreacted label eluted in the wash. The peptide was then eluted from the column with H2O/CH3CN (40:60 v/v), and a mixture of labeled and unlabelled peptide was detected by MALDI-TOF mass spectrometry. […]
# TTR105-115 labeling with dansyl chloride. […] The peptide was then eluted from the column with H2O/CH3CN (50:50 v/v), and a mixture of labeled and unlabelled peptide was detected by MALDI-TOF mass spectrometry. […]
# TTR10-19 [3] = target: T1, TTR10-19; assay: fluorescence anisotropy of labeled peptide co-assembled into fibrils (free peptide 0.02)
# TTR105-115 [4] = target: T2, TTR105-115; assay: as above
# Bovine insulin [5] = target: T3, Bovine insulin (bovine, UniProt P01317 85-105; P01317 25-54); assay: as above
# T3 construct: mature; Bought protein, assembled into amyloid fibrils at low pH and high temperature; also called insulin fibrils
# TTR10-19 [6] = target: T1, TTR10-19; assay: fluorescence anisotropy of labeled peptide co-assembled into fibrils (free peptide 0.03)
# Protocol: (§1) All anisotropy measurements were monitored over 10 sec to rule out photobleaching phenomena and then averaged.
# (§2) Panel a: F5M-TTR₁₀₋₁₉ incorporated into TTR₁₀₋₁₉ fibrils (dashed line) is compared with F5M-TTR₁₀₋₁₉ (solid line) in 20 mM sodium phosphate buffer, pH 1.0 at a final labeled peptide concentration of 0.3 μM. Panel b: dansyl-TTR₁₀₅₋₁₁₅ incorporated into TTR₁₀₅₋₁₁₅ fibrils (dashed line) is compared with dansyl-TTR₁₀₅₋₁₁₅ (solid line) in water at a final labeled peptide concentration of 0.9 μM. The fluorescence spectra have been normalised. […] Fibrils were pelleted by centrifugation at 9500 g for 15 min, the pellet resuspended in H₂O pH 2 and deposited on a glass slide and imaged using fluorescence light microscopy. […] TTR₁₀₋₁₉ containing 1% (w/w) dansyl-TTR₁₀₅₋₁₁₅ was resuspended at a final total peptide concentration of 10 mg/ml in 10% CH₃CN adjusted to pH 2 with TFA. The sample was incubated at 37° C. for 10 days after which time the CD spectrum indicated the formation of significant O-sheet structure, and fibrils were observed by EM.
# TTR105-115 [7] = target: T2, TTR105-115; assay: as above
# Protocol: as §1, §2
# Bovine insulin [8] = target: T3, Bovine insulin; assay: as above
# Protocol: as §1, §2
# T3 sequence (P01317 85-105 limits assumed, chain 1 of 2): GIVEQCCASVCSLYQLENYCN
# T3 sequence (P01317 25-54 limits assumed, chain 2 of 2): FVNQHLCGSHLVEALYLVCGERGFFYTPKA
molecule,measurement,setting,value
CPLMVKVLDA [TTR10-19],time remaining soluble,[1],48 h
same,solubility,"[2]; 1 mg/ml in H2O, TCEP, F5M, final 10% DMSO",fully soluble
YTIAALLSPYS [TTR105-115],time remaining soluble,[1],48 h
same,solubility,"[2]; 1 mg/ml in H2O/CH3CN (80:20 v/v), dansyl chloride, 10% DMSO, pH 9.0",fully soluble
B1,fluorescence anisotropy on incorporation into fibrils,TTR10-19 [3],0.16
same,fluorescence anisotropy on incorporation into fibrils,TTR105-115 [4],0.13
same,fluorescence anisotropy on incorporation into fibrils,Bovine insulin [5],0.19
B2,fluorescence anisotropy on incorporation into fibrils,TTR10-19 [6],0.17
same,fluorescence anisotropy on incorporation into fibrils,TTR105-115 [7],0.22
same,fluorescence anisotropy on incorporation into fibrils,Bovine insulin [8],0.16
